The values that follow come from PMC4329827 (Meta Gene, 2015).

For this assay, the target named is T1, MOCS2B wild-type, large subunit of MPT synthase (human, UniProt O96007 1-188).
T1 sequence (looked up): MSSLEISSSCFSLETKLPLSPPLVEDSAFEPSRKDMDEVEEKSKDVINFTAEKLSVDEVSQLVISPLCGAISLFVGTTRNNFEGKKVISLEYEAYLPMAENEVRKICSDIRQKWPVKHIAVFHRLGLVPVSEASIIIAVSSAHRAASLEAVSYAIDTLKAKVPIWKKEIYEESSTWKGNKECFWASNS
As to the kind of experiment: ITC.

B1: MOCS2A, small subunit of MPT synthase (activated, thiocarboxylated) (natural protein, human, UniProt O96033 1-88, looked up)
chain: MVPLCQVEVLYFAKSAEITGVRSETISVPQEIKALQLWKEIETRHPGLADVRNQIIFAVRQEYVELGDQLLVLQPGDEIAVIPPISGG
modifications: thiocarboxylated C-terminal tail
Molecule B1 yielded a Kd of 360 ± 47 nM.
